Data taken from the DeepSol protein solubility set.

assay: soluble on expression in E. coli; label from the status in PepcDB or PDB records

Row | Sequence | soluble on expression in E. coli
1 | MGSDKIHHHHHHAQFKIGGKKINVGKVVQAGSDAAKAITLSDSDIAAMSKEYMQWMDTHNPLTAADSEYGKRLEKLTGHIKEVDGLKVNFGVYEVVDVNAFACGDGSVRICAGLMDIMTDDEVMAVVGHEIGHVIHTDSKDAMKSAYLRSAVKNAAGAASSTVSKLTDSELGAMAEALAGAQYSQKQESEADDYGFEFSIKHNIDPYAMYNALNKLLELSAEAPKESKFQKMFSSHPDTAKRVARAKEKADNYTKNK | not soluble
2 | MCMNKKRIYKFRRFLARKLDFPSDAVMYTPRINISVTGDEEITIENYRGIVEFSDENIKVNTEVGTISIDGKNFEIVFISGSTIILGGKFKTIAYGGDKNEALEHHHHHH | soluble
3 | GPLGSETITVPTPIKQIFSDDAFAETIKDNLKKKSVTDAVTQNELNSIDQIIANNSDIKSVQGIQYLPNVTKLFLNGNKLTDIKPLANLKNLGWLFLDENKVKDLSSLKDLKKLKSLSLEHNGISDINGLVHLPQLESLYLGNNKITDITVLSRLTKLDTLSLEDNQISDIVPLAGLTKLQNLYLSKNHISDLRALAGLKNLDVLELFSQECLNKPINHQSNLVVPNTVKNTDGSLVTPEIISDDGDYEKPNVKWHLPEFTNEVSFIFYQPVTIGKAKARFHGRVTQPLKE | soluble
4 | MIIILRYNKQVFYKYKGDSVMRNRTSVMRKRQMQEVTAKRTKLGKIAMTQKLEATEKQFIVTQGQPCQTQLAEGKFLSYQYNDQIFVHGGRCIELVDSNIVSTAHASLLITILLEGKLSFGYDDLQFDLDASDTPQGVVVNLIHPANFRRSLIENNQINKINILVKPQWLEYRSEESCCSTAFFETHQAFYHLELNQALTELATELTNRDTPHRFQDKLEIESLIYQILFHATQQMPQDFCPQNTNSYRDK | not soluble
5 | MGSDKIHHHHHHMTYELSTDREFDLIAIGRACIDLNAVEYNRPMEETMTFSKYVGGSPANIVIGSSKLGLKAGFIGKIADDQHGRFIESYMRGVGVDTSNLVVDQEGHKTGLAFTEIKSPEECSILMYRQDVADLYLSPEEVNEAYIRRSKLLLVSGTALSKSPSREAVLKAIRLAKRNDVKVVFELDYRPYSWETPEETAVYYSLVAEQSDIVIGTREEFDVLENRTEKGDNDETIRYLFKHSPELIVIKHGVEGSFAYTKAGEAYRGYAYKTKVLKTFGAGDSYASAFLYALISGKGIETALKYGSASASIVVSKHSSSDAMPSVEEIEALIEKDETITIA | not soluble
6 | MIELEGVPELVDPVMVAAFEGWNDAGDAASTAVAHLDREWKGEVFAALDAEDYYDFQVNRPTVFMEDGVRKITWPTTRLSVVRVGGDKPRDLVLVRGIEPSMRWRSFCNELLGFAHELGVELVVVLGALLGDTPHTRPVPISGTTSDADLARRMDLEETKYEGPTGIVGILQEACTHAGVPAVSLWAAVPHYVSQPPNPKATLALLNRLEDLIGVRVPLGELPEDARAWQVGVDQLAAEDTEVAEYVQSLEEARDTA | soluble
7 | LLGNTIHVPCQPCRHGHGAPSRGLRGRPADRWPVARATPTLHVCPQNQGVGLDFVRKPEYGRLRWPAYPAGTNNDRLISMRDGGIVALPQLTDEQRAAALEKAAAARRARAELKDRLKRGGTNLTQVLKDAESDEVLGKMKVSALLEALPKVGKVKAQEIMTELEIAPTRRLRGLGDRQRKALLEKFGSA | soluble
8 | MEELNKYKQEIKDNALKELDSTKKKINEEKKHWGDLPLTYMPISNGTMTREYAETEQFYSHVVNVKNILDSLFEEVENDIKRLDAIFCFNEYTVYGQEDIEQIKENIKNEYKTSVAHFSKLWEDIKAMSVLLRSCFNKTWDRHSEVTLLTVIQTLDESIKHRGGPNYDKNNDNFFLLRECGSALRECNTQIKMDEKNLIIRIINTKDLEGGFKKSLETLLNENESANFIKLLAEYLEGVNLNVDVQVLKENFFIFAQGIKQFYLNNVETLKD | not soluble
9 | MTTKHSRTPGRPRQFDPEQAIETAQHLFHSRGYDAVSVADLTKAFGINPPSFYAAFGSKLGLYTRVLKRYRMTDAIPLGALLRHDRPTAKCLIDVLMEAARRYAADPDATGCLVLEGAHCNDKPAREAACEFYIAAENLIRTYVAMRYPQEADRTTDFMGTLMAGLSAKARAGYGLERLQESVLLAGDVLERLLPD | not soluble
10 | MRSLADFEFNNAPLCDGMILASEMIRLDFPTQFVYDELERLVSLAQEEISQLLSQDEQLEKLLALFYGEWGFTDSRGVYRLSDALWLDKVLKKRQGSAVSLGAILLWIANRLDLPLVPVIFPTQLILRIESLEGEMWLINPFNGETLDEHTLEVWLKGNISPVAELFNEDLDEADNAEVIRKLLDTLKSSLMEERQMELALRVSEALLQFNPEDPYEIRDRGLIYAQLECEHVALTDLSYFVEQCPEDPISEMIRAQINTIAHKQIVLHLEHHHHHH | not soluble
11 | MGSDKIHHHHHHMFLKNCWYVAAWSHEIDRTLQPQTFLGENVVLYRKQDGTPVALEDACPHRKLPLSDGALQGDTVECGYHGLTFDCAGACVAAPTQKDAIPKRATVKSYPVVDRYRFTWIWMGDPAEADPDLIFPIPNFDDPTWGKTDGGVLDIDCNYLWVVDNLLDPSHVAWVHVTSFAGGGTDGAPLQVDKTEHGVQVTRWIFGEPPSPYYENLLAFQGPCDRLQHYEMTRPAMATNMSIYTPPGTGGYGRSPVENTFINISYNFMTPITEDKTRYFWFQHRNSEPDNVEMSETMNKGAVMAFHEDKAILEKVHTGMKHAVTPHIDLGLDAGAKTFRLGLQKAIETENA | not soluble
12 | MGFKQDIATIRGDLRTYAQDIFLAFLNKYPDERRYFKNYVGKSDQELKSMAKFGDHTEKVFNLMMEVADRATDSVPLASDANTLVQMKQHSSLTTGNFEKLFVALVEYMRASGQSFDSQSWDRFGKNLVSALSSAGMK | soluble
13 | MSLKPKYKQIIDDIISQIDSGDLEQGMQLPSQRDMASLYQVNRSTVIQALDILKSQGIIEGREKQRLYVSGNTWHTYIKNNINWQNYISHSTTKNNQYFVQQINKLEFHTNMIRLGTGELAPDLIPNEQFKEILSKCHTPVLNTNYEPPQGNLKLREAVAQYMQKSGVSCTVDHICITSGALQGLKLIADGLLIPQSKIIVESPSYINSIRTWHNMRADIQQISISDIKSNINNIFKAQSQYTNSIFYCIPTLHNPTQHSYSTEEKQKIIMQCEQHGIPIVEDNVYGDLYFNHERPKPLKSFDTNDNILYLNSLSKTVSPGLRVGWIVAKPSVAAHLADLKMQNDYGASSISQYIATQWLTHPQYHDQHLKMLKNQLLIKRNLFLESLKKYFSDFGSWSTPEGSFYIWFQFKFSIDMKRLFDEAIAENILINPGEVYDKDARDCIRFSYAYVDAEDIDETLKHLSKIIQTRFTPPSSHIGKGNEGHHHHHH | not soluble
14 | MKLKAMYSFLSDDLAAVEEELERTVRSEYGPLGEAALHLLQAGGKRIRPVFVLLSARFGHYDFERIKHVAVALELIHMASLVHDDVIDDADVRRGRPTIKARWSNRFAMYTGDYLFARSLERMAELDSPRAHQVLAKTIVEVCHGEIEQIKDKYRFDQPLRTYLRRIRRKTALLIAASCQLGALAAGAPEAVANRLYWFGHCVGMSFQITDDILDFTGTEEQLGKPAGSDLQQGNVTLPVLYALCDEQVRAKITAVNADTDAEEMAAVLAAIKQTDAIERSYALSDRYLEKALRLLGELPANEARTLLHDLALYIGKRDY | not soluble
15 | MPPATNNSREEKEEETTDLSAGKGDCGIKAAATIYVNCELLGGAKKRKKKVYIIPKKNNISQRKSSSPSPKYFKIDENGKISRLPTGIPTVSIQREAFMTQPTTLRKMSQHPCR | soluble
16 | SRAMPASLSTAALRSDNVSPVDPLGVQREFDHYVSVLRDRLGLQVVMLPADEELPDCVFVEDTAVVCGSTALITRPGAPSRRSETVAMKGALTELGLNIVEMNDESATMDGGDVLFTGKEFFVGLSKRTNQRGAEILANTFKDYAVSTIPVEEGLHLKSFCSMAGPNLIAIGSSDAAQKALKVIQQMSDCKYEKLTVPDDRAANCVYMNLPGKGDVLLHCTPEVFPESAKVFERLKSHMLIPVSNQEKMKVDGALTCLSVLLRI | soluble
17 | SLTNITQCKNRRCGGELGDFTGYIESPNYPGNYPANTECTWTINPPPKRRILIVVPEIFLPIEDDCGDYLVMRKTSSSNSVTTYETCQTYERPIAFTSRSKKLWIQFKSNEGNSARGFQVPYVTYDEDYQELIEDIVRDGRLYASENHQEILKDKKLIKALFDVLAHPQNYFKYTAQESREMFPRSFIRLLRSKVSRFLRPYK | soluble
18 | AHMAMIKMSPEEIRAKSQSYGQGSDQIRQILSDLTRAQGEIAANWEGQAFSRFEEQFQQLSPKVEKFAQLLEEIKQQLNSTADAVQEQDQQLSNNFGLQ | soluble
